# Measurements reported in patent US20230257457A1 (published 2023).
# B1: mouse human chimeric anti-R273H p53 antibody clone MH 13E4 (antibody, human IgG1, V domains shown)
# VH: EVQLLETGGDLVTPGGSLKLSCAASGFSFSDYYMYWVRQTPEKRLEWVATISVGGTYTFYSDNVKGRFVISRDNARKNLHLEMNSLKSEDAAMYYCVRDGNDGKFLGYWGQGTFVTVTV
# VL: DIVMTQSPLSLPVNLGDQVSLSCRSSQSIVHNNGDTYLEWYLQKPGQSPKLLIYKVSNRFSGVPDRFSGSGSGTDFTLKISRVEAEDLGIYYCFQGSHLPLTFGSGTKLELK
# notes: Mouse Fv with human IgG1 constant region; also called chimeric 13E4
# Target: T1, thioredoxin (Escherichia coli (strain K12), UniProt P0AA25 2-109 = thioredoxin)
# T1 construct: Negative control antigen; also called Trx; TrxA
# T1 sequence (P0AA25 2-109 limits assumed): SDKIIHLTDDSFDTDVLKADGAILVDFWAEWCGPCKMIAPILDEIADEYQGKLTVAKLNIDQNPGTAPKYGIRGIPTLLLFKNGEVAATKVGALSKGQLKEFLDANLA
# Test: ELISA (FIG. 64)
binder,measurement,value
B1,binding result,no binding (tested: 1 ng/µl)
